Drawing on publication PMC3839042 (Biochemistry, 2013), this text covers Kd, koff and kon for nine molecules.

The chains are these.
B5: human S100B (natural protein, UniProt P04271 1-92, looked up)
chain: MSELEKAMVALIDVFHQYSGREGDKHKLKKSELKELINNELSHFLEEIKEQEVVDKVMETLDNDGDGECDFQEFMAFVAMVTTACHEFFEHE
B6: human S100P (natural protein, UniProt P25815 1-95, looked up)
chain: MTELETAMGMIIDVFSRYSGSEGSTQTLTKGELKVLMEKELPGFLQSGKDKDAVDKLLKDLDANGDAQVDFSEFIVFVAAITSACHKYFEKAGLK
B7: human S100A2 (natural protein)
chain: not shown

Like-named read-outs stand apart in the source and are kept apart here. A value given as a limit tells only on which side of the number the result lay.

In test [1] the target is B6. The test is described as follows: ITC.
The target of test [2] is B6. Kind of test: other fluorescence titration.
For test [3], the target named is B5. Kind of test: ITC.
Test [4] concerns the target B7. Kind of test: ITC.
For test [5], the target named is B7. Kind of test: other fluorescence titration.
Test [6] addresses B5. The test is described as follows: other fluorescence titration.
Test [7] has as its target T1, TRTK12 wild-type peptide (Ac-…-NH2) (N-terminus acetylated; C-terminus amidated). Kind of test: stopped-flow fluorescence.
Test [8] deals with T1, TRTK12 wild-type peptide (Ac-…-NH2). The test is described as follows: ITC.
Test [9] shares this target. The test is described as follows: other fluorescence titration.
For test [10] the target is unchanged. The test is described as follows: stopped-flow fluorescence. This is another data set of the same source.
Test [11] has the same target. The test is described as follows: ITC. This is another data set of the same source.
Test [12] has the same target. The test is described as follows: other fluorescence titration. This is another data set of the same source.
For test [13] the target is unchanged. The test is described as follows: stopped-flow fluorescence. This is another data set of the same source.
Test [14] shares this target. Kind of test: stopped-flow fluorescence. This is another data set of the same source.
The target is the same in test [15]. Kind of test: ITC. The source holds these as a separate data set.
Test [16] shares this target. Kind of test: other fluorescence titration. The source holds these as a separate data set.

B1: TRTKM1 (Ac-ARTKIDWNKILS-NH2) (peptide)
peptide: Ac-ARTKIDWNKILS-NH2
As for B1, the Kd in test [1] was 2 ± 0.5 µM; in test [2], 7 ± 3 µM; in test [3], 2.9 ± 1 µM; in test [4], 15.2 ± 1 µM; in test [5] it was 16 ± 1 µM; in test [6] it was 0.2 ± 0.1 µM.

B2: TRTKM11 (Ac-TRTKIDWNKIAS-NH2) (peptide)
peptide: Ac-TRTKIDWNKIAS-NH2
Regarding B2, the dissociation constant (Kd) in test [1] was 31.7 ± 0.5 µM; in [3], 3.8 ± 1 µM; in test [4], 504 ± 9.7 µM; in test [6], 10 ± 3 µM.

B3: TRTKM9 (Ac-TRTKIDWNAILS-NH2) (peptide)
peptide: Ac-TRTKIDWNAILS-NH2
Take B3: the dissociation constant Kd in [1] amounted to 7.1 ± 0.5 µM; in test [2], 30 ± 10 µM; in test [3], 1.7 ± 0.1 µM; in test [4] it was 45 ± 2 µM; in test [5] it was 17 ± 4 µM; in [6] it was 2 ± 1 µM.

B4: TRTKM5 (Ac-TRTKADWNKILS-NH2) (peptide)
peptide: Ac-TRTKADWNKILS-NH2
Regarding B4, the dissociation constant Kd in test [1] was 56.2 ± 4 µM; in test [2] it was 100 ± 23 µM; in test [3], 1.2 ± 0.4 µM; in [4], 131 ± 6.1 µM; in [6], 0.6 ± 0.6 µM.

As for B5, the off-rate constant (koff) stood at 86 s⁻¹ in test [7] and 53 s⁻¹ in test [10]. Moreover, the Kd was determined as 1.7 ± 0.1 µM in test [8] and 3 ± 1 µM in test [9]. This molecule had an on-rate (kon) in test [10] of 3.1e+07 M⁻¹ s⁻¹.

As for B6, the Kd in test [11] came out at 5.1 ± 0.3 µM; in test [12], 11 ± 1 µM. Moreover, the koff in test [13] stood at 286 s⁻¹. This molecule showed an on-rate (kon) in test [13] of 5.6e+07 M⁻¹ s⁻¹.

Regarding B7, the off-rate (koff) in [14] is not below 250 s⁻¹. Also, the dissociation constant (Kd) in test [15] was determined as 48 ± 3 µM; in test [16] it was 43 ± 9 µM.

B8: TRTKM10 (Ac-TRTKIDWNKALS-NH2) (peptide)
peptide: Ac-TRTKIDWNKALS-NH2
Regarding B8, binding in [1] was characterised by a dissociation constant (Kd) of 43.1 ± 3.9 µM.

B9: TRTKM6 (Ac-TRTKIAWNKILS-NH2) (peptide)
peptide: Ac-TRTKIAWNKILS-NH2
For B9, the Kd in test [1] is 7.4 ± 1 µM; in test [3], 1.3 ± 0.6 µM; in test [4], 21.5 ± 4 µM; in [5], 23 ± 3 µM; in test [6] it was 5 ± 1 µM.
